This note sets out measurements from patent publication CN114652851A (STONE BIOPHARMACEUTICAL CO LTD, dated 2022).

The target in the experiment is T1, Human TROP2蛋白 (human, UniProt P09758 27-274, limits assumed).
T1 construct: also called 人TROP2
T1 sequence (looked up): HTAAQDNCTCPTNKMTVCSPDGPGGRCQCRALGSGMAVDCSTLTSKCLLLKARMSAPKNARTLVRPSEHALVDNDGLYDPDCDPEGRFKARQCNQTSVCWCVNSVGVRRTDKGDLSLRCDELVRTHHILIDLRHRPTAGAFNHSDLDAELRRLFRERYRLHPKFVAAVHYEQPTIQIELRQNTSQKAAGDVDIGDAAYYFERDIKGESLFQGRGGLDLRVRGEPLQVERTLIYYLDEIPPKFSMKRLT
Put plainly: ELISA, TROP2 protein incubated with antibody dilutions, goat anti-human IgG (H+L) secondary antibody. On the technique in general: ELISA stands for enzyme-linked immunosorbent assay.

B1: SY02人源化抗体 (人源化抗TROP2抗体SY02) (antibody, human IgG1, kappa, V domains shown)
VH: QVQLVQSGAEVKKPGSSVKVSCKASGYTFTDYSINWVRQAPGQGLEWMGVISTYYGDASYNQKFKGRVTITADESTSTAYMELSSLRSEDTAVYYCARYGDGYNQFDYWGQGTLVTVSS
VL: DIQMTQSPSSLSASVGDRVTITCRVSESVDSYGNNFMHWYQQKPGKAPKLLIYRASNLESGVPSRFSGSGSGTDFTFTISSLQPEDIATYYCQQSYEDPYTFGGGTKLEIKR
notes: also called 裸抗SY02
Consider B1, for which the binding result is given as “binds”.
